Measurements taken from article PMC4678826, “Different genome stability proteins underpin primed and naïve adaptation in E. coli CRISPR-Cas immunity”.

Columns and labels:
Cas1 R123G = molecular target: T1, Cas1 R123G (Escherichia coli, UniProt Q46896 1-305, R123G); assay: EMSA; 5 mM EDTA; EMSA: 7 mM Tris-HCl pH 8.5, 9% glycerol, 50 mM NaCl, 100 ug/ml BSA, 5 mM EDTA, 10 min ambient temperature, 6 nM DNA, 5% acrylamide TBE gel at room temperature; conditions: protein: recombinant; tags: N-terminal His6; chain copies: 2; label: 5'-32P; fork; 25 nt leading arm duplex, 26 nt ssDNA flap
T1 sequence: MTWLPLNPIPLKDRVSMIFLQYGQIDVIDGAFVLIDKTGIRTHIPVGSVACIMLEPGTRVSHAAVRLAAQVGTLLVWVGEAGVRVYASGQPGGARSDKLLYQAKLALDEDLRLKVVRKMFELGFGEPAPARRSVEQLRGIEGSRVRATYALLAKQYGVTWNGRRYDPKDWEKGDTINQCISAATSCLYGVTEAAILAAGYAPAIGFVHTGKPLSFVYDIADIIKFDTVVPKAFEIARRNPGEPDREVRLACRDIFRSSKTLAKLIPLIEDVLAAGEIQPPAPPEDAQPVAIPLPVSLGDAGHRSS

Cas1 R84G = molecular target: T2, Cas1 R84G (Escherichia coli, UniProt Q46896 1-305, R84G); assay: as above; conditions: protein: recombinant; tags: N-terminal His6; chain copies: 2; label: 5'-32P; fork; 25 nt leading arm duplex, 26 nt ssDNA flap
T2 sequence: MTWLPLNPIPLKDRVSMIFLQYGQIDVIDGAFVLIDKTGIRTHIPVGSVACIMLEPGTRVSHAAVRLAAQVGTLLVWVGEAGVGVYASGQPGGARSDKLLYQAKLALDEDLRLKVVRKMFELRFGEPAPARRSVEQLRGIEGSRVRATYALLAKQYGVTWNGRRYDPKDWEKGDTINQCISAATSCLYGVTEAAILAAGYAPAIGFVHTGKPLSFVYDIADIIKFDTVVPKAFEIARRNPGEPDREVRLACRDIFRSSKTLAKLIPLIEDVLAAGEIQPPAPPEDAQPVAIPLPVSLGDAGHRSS

Cas1 R138G = molecular target: T3, Cas1 R138G (Escherichia coli, UniProt Q46896 1-305, R138G); assay: as above; conditions: protein: recombinant; tags: N-terminal His6; chain copies: 2; label: 5'-32P; fork; 25 nt leading arm duplex, 26 nt ssDNA flap
T3 sequence: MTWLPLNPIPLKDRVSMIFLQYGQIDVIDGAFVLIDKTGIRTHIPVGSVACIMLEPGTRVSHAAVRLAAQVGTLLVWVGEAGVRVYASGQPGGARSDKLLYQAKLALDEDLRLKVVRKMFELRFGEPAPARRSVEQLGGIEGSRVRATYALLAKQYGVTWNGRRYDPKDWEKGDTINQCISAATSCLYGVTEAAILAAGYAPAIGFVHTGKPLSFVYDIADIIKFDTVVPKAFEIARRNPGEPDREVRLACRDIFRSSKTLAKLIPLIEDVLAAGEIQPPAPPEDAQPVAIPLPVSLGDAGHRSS

Cas1;Cas2 = molecular target: T4, Cas1;Cas2 (Escherichia coli;Escherichia coli, UniProt Q46896;P45956 1-305;1-94, |); assay: EMSA; 5 mM EDTA; super-shifted complex Y; EMSA: 7 mM Tris-HCl pH 8.5, 9% glycerol, 50 mM NaCl, 100 ug/ml BSA, 5 mM EDTA, 10 min ambient temperature, 6 nM DNA, 5% acrylamide TBE gel at room temperature; conditions: protein: recombinant;recombinant; tags: N-terminal His6;N-terminal His6; chain copies: 4;2; label: 5'-32P; fork; 25 nt leading arm duplex, 26 nt ssDNA flap
T4 sequence 1: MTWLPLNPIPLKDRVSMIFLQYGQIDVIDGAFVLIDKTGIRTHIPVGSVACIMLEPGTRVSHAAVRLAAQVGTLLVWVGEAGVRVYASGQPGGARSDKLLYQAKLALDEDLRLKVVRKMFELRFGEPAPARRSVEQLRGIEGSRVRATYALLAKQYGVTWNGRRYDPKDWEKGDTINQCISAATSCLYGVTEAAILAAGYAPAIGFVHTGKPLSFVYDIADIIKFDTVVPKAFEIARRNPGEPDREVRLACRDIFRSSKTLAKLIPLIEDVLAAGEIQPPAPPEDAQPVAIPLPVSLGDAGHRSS
T4 sequence 2: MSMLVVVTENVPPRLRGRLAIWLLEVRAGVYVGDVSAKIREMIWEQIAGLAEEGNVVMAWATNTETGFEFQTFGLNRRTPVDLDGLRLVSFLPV

B1: fork-1 (mixed)
DNA 1: CAACGTCATAGACGATTACATTGCTACATGGAGCTGTCTAGAGGATCCGA
DNA 2: TCGGATCCTCTAGACAGCTCCATGATCACTGGCACTGGTAGAATTCGGC
DNA 3: GCCGAATTCTACCAGTGCCAGTGAT
B1: no binding (Cas1 R123G); no binding (Cas1 R84G); no binding (Cas1 R138G). B1: binds (Cas1;Cas2).
